Measurements taken from PMC3741392, “The Tip of the Tail Needle Affects the Rate of DNA Delivery by Bacteriophage P22” (PLoS ONE, 2013).

Target: the molecule itself
Experiment: crystal structure; hanging drop vapor diffusion, 26% PEG 3350, 50 mM Tris-HCl pH 8.0; space group P212121; one trimer in the asymmetric unit; 1.1 Å

B1: bacteriophage HS1 tail needle knob (domain or fragment)
chain: RISALEYATTRKKSEVVYSGVSVTIPTAPTNLVSLLKTLTPSSGTLAPFFDTVNNKMVVFNENKTLFFKLSIVGTWPSGTANRSMQLTFSGSVPDTLVSSRNSATTTDNILLATFFSVDKDGFLATNGSTLTIQSNGAAFTATTIKIIAEQ
stoichiometry N: 3
